Test in all cases: malachite green phosphate release assay, Michaelis-Menten fit
Common to all, as to assay type: biochemical, Arabidopsis thaliana

Substrate in series [1]: N[C@H](COP(=O)(O)O)Cc1c[nH]cn1
The following applies: 50 mM Tris-Cl pH 7.5, 2 mM MgCl2, 22°C in table note (25°C in methods), substrate 0-1 mM. The text has this: malachite green phosphate release assay, Michaelis-Menten fit on IMPL2 (AtIMPL2)

Substrate in series [2]: O=P(O)(O)O[C@@H]1[C@H](O)[C@H](O)[C@@H](O)[C@H](O)[C@H]1O
As to conditions: 50 mM Tris pH 9, 3 mM MgCl2, 22°C in table note (25°C in methods), substrate 0-1 mM, substrate inhibition above 1 mM. From the text: (§1) malachite green phosphate release assay, Michaelis-Menten fit on IMPL1 (AtIMPL1)

Substrate in series [3]: O=P(O)(O)O[C@H]1O[C@H](CO)[C@H](O)[C@H](O)[C@H]1O
As to conditions: 50 mM Tris pH 9, 3 mM MgCl2, 22°C in table note (25°C in methods), substrate 0-1 mM, value approximated.
Description: as §1

B1: IMPL2 (AtIMPL2) (Arabidopsis thaliana) (protein)
chain: LSDTELDRFAAVGNALADASGEVIRKYFRKKFDIVDKDDMSPVTIADQMAEEAMVSIIFQNLPSHAIYGEEKGWRCKEESADYVWVLDPIDGTKSFITGKPVFGTLIALLYKGKPILGLIDQPILKERWIGMNGRRTKLNGEDISTRSCPKLSQAYLYTTSPHLFSEEAEKAYSRVRDKVKVPLYGCDCYAYALLASGFVDLVIESGLKPYDFLALVPVIEGAGGTITDWTGKRFLWEASSSAVATSFNVVAAGDSDIHQQALESLEWH
notes: plasmid pAtIMPL2H
For the protein B1, in series [1], the Km came out at 180 ± 5 µM, the kcat came out at 1.3 ± 0.2 s⁻¹ and the kcat/Km came out at 7900 ± 200 M⁻¹ s⁻¹.

B2: IMPL1 (AtIMPL1) (Arabidopsis thaliana) (protein)
chain: TTGTISPAHLLEVVELAAKTGAEVVMEAVNKPRNITYKGLSDLVTDTDKASEAAILEVVKKNFSDHLILGEEGGIIGDSSSDYLWCIDPLDGTTNFAHGYPSFAVSVGVLYRGNPAAASVVEFVGGPMCWNTRTFSATAGGGALCNGQKIHVSKTDAVERALLITGFGYEHDDAWSTNMELFKEFTDVSRGVRRLGAAAVDMCHVALGIAESYWEYRLKPWDMAAGVLIVEEAGGAVTRMDGGKFSVFDRSVLVSNGVLHPKLLERIAPATENLKSKGIDFSLWFKPEDYHTEL
notes: plasmid pAtIMPL1H
B2: in series [2], the Km was determined as 180 ± 3 µM, the kcat worked out at 0.6 ± 0.1 s⁻¹ and the kcat/Km turned out to be 3300 ± 100 M⁻¹ s⁻¹. In series [3], the Km stood at 450 ± 60 µM, the kcat stood at 2.4 ± 1.3 s⁻¹ and the kcat/Km was 5300 ± 500 M⁻¹ s⁻¹.
